From patent publication EP4039268A1 come the findings set out here.

Test [1] concerns the target monomeric SARS-CoV-2 receptor binding domain (RBD-H6) (SARS-CoV-2) (UniProt P0DTC2). Description: ELISA screen. (In general: An ELISA detects its analyte on a solid surface through an enzyme-linked reagent.)
The target of test [2] is full-length trimeric SARS-CoV-2 Spike protein (Spike-H6) (SARS-CoV-2). The experiment in a line: ELISA screen.
Test [3] has as its target human recombinant soluble ACE2 (human) (UniProt Q9BYF1). Description: ELISA screen.
In test [4] the target is full-length trimeric SARS-CoV-2 Spike protein (Spike-H6) (SARS-CoV-2). Description: AFM single molecule force spectroscopy, Evans model.
Test [5] shares this target. The experiment in a line: high-speed AFM, from volumes.
Test [6] has the same target. Description: SPR, Spike immobilized, bivalent analyte model, first binding step. For orientation: Surface plasmon resonance follows binding to a sensor surface in real time, without labels.
For test [7] the target is unchanged. The experiment in a line: inhibition of Spike binding to Vero E6 cells, AFM.

Sequence of human recombinant soluble ACE2 (human) (Q9BYF1 18-740 limits assumed): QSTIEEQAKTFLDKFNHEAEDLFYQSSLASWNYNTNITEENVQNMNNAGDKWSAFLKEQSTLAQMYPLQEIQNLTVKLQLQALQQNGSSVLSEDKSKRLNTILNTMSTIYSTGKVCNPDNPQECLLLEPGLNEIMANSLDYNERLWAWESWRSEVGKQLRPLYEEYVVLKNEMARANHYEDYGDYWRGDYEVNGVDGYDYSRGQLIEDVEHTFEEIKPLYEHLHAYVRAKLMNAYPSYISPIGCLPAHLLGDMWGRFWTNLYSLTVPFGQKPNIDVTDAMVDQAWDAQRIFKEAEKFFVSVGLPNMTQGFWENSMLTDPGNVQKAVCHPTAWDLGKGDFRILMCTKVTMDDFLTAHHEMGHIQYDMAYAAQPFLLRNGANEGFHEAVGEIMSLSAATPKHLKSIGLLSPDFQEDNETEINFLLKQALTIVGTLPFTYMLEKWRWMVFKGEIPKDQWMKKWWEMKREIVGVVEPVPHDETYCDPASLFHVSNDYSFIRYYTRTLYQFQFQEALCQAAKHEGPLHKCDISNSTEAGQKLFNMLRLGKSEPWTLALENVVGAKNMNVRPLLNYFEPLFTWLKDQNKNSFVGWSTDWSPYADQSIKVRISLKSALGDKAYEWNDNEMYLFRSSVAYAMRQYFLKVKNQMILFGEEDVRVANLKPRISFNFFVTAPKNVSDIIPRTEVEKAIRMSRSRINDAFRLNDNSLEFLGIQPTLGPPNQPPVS
Sequence of human CLEC4G-hIgG1 Fc-fusion protein (Fc fusion) (Q6UXB4 53-293, form in doubt): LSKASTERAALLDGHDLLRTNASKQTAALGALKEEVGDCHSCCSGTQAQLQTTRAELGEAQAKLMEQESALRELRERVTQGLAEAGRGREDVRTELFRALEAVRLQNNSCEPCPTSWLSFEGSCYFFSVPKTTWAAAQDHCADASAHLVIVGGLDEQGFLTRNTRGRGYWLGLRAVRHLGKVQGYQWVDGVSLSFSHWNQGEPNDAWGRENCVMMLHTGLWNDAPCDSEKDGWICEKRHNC
Sequence of Bcan CRD-mouse IgG2a-Fc fusion protein (Q61361 other isoform, or with tags, fused parts or gaps limits assumed): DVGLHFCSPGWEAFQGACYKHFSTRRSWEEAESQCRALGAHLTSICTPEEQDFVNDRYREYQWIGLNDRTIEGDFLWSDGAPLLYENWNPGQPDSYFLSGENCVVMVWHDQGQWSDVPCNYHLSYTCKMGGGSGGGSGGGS
Sequence of Olr1 CRD-mouse IgG2a-Fc fusion protein (Q9EQ09 other isoform, or with tags, fused parts or gaps limits assumed): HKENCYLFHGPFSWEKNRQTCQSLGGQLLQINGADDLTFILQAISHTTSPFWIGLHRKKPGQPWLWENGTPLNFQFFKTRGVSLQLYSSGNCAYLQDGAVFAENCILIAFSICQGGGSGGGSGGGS
Sequence of Clec4g CRD-mouse IgG2a-Fc fusion protein (Q8BNX1 other isoform, or with tags, fused parts or gaps limits assumed): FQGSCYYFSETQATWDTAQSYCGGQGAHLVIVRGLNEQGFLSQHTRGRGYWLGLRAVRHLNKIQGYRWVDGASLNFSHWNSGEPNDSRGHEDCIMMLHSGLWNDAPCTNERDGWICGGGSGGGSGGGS
Sequence of Asgr1 CRD-mouse IgG2a-Fc fusion protein (P34927 other isoform, or with tags, fused parts or gaps limits assumed): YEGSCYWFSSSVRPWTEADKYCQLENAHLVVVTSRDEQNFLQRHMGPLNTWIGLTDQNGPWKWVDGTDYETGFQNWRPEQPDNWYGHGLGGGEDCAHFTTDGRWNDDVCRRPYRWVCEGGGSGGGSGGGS
Sequence of Lgals6_2 CRD-mouse IgG2a-Fc fusion protein (O54891 other isoform, or with tags, fused parts or gaps limits assumed): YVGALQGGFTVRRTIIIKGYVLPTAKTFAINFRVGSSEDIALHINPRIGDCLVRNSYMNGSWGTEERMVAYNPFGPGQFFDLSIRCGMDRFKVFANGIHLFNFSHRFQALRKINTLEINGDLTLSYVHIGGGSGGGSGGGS
Sequence of Ncan CRD-mouse IgG2a-Fc fusion protein (P55066 other isoform, or with tags, fused parts or gaps limits assumed): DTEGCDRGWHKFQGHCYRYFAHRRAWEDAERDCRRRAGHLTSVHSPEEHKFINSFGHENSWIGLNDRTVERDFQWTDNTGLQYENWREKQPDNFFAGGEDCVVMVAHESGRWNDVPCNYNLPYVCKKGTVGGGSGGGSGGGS
Sequence of Ly75_2 CRD-mouse IgG2a-Fc fusion protein (Q60767 other isoform, or with tags, fused parts or gaps limits assumed): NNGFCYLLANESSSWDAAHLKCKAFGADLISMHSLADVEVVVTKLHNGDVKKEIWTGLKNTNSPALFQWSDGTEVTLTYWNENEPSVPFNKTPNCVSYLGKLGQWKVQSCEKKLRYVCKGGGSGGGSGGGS
Sequence of Clec2g CRD-mouse IgG2a-Fc fusion protein (Q9D676 other isoform, or with tags, fused parts or gaps limits assumed): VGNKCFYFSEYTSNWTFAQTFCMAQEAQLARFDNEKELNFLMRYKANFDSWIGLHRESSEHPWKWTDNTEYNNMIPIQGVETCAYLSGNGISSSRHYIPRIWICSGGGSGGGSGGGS
Sequence of Lgals4_1 CRD-mouse IgG2a-Fc fusion protein (Q8K419 other isoform, or with tags, fused parts or gaps limits assumed): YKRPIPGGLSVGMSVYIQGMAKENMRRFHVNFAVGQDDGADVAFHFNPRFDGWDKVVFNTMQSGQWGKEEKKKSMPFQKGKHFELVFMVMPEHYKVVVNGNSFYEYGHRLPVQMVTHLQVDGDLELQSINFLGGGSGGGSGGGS
Sequence of Clec2i CRD-mouse IgG2a-Fc fusion protein (Q9WVF9 other isoform, or with tags, fused parts or gaps limits assumed): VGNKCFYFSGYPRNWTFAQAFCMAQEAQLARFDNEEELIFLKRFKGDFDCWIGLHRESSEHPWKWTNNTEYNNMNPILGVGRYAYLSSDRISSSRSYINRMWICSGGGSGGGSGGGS
Sequence of Ly75_5 CRD-mouse IgG2a-Fc fusion protein (Q60767 other isoform, or with tags, fused parts or gaps limits assumed): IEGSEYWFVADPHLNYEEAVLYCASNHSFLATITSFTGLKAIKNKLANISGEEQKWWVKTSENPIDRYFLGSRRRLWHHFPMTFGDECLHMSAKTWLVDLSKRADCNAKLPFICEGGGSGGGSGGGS
Sequence of Ly75_1 CRD-mouse IgG2a-Fc fusion protein (Q60767 other isoform, or with tags, fused parts or gaps limits assumed): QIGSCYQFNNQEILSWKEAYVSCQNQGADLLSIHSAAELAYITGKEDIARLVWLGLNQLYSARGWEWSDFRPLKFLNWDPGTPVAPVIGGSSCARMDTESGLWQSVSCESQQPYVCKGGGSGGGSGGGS
Sequence of Clec2h CRD-mouse IgG2a-Fc fusion protein (Q8C1T8 other isoform, or with tags, fused parts or gaps limits assumed): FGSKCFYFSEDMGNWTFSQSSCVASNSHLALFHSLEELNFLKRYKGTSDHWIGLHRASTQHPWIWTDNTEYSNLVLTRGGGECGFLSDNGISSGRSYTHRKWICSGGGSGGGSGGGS

As for “Asgr1 CRD-mouse IgG2a-Fc fusion protein (from UniProt P34927 160-277)”, the Mean normalized OD in test [1] was 0.697 OD.

As to “Bcan CRD-mouse IgG2a-Fc fusion protein (from UniProt Q61361 658-786)”, the Mean normalized OD in test [1] amounted to 0.101 OD.

Turning to “Cd33 CRD-mouse IgG2a-Fc fusion protein (from UniProt Q63994 17-120)”, the Mean normalized OD is 0.009 OD in test [1], 0.023 OD in test [2] and 0.216 OD in test [3].

Take “Cd93 CRD-mouse IgG2a-Fc fusion protein (from UniProt O89103 31-173)”: the Mean normalized OD in test [1] is -0.005 OD; in test [2], 0 OD; in test [3], -0.163 OD.

Consider “Cd209f CRD-mouse IgG2a-Fc fusion protein”, for which the Mean normalized OD turned out to be 0.015 OD in test [1], 0.018 OD in test [2] and 0.182 OD in test [3].

For “Clec2f CRD-mouse IgG2a-Fc fusion protein”, the Mean normalized OD was 0.045 OD in test [1], -0.02 OD in test [2] and -0.261 OD in test [3].

“Clec2g CRD-mouse IgG2a-Fc fusion protein (from UniProt Q9D676 150-254)” showed a Mean normalized OD in test [1] of 0.421 OD.

As for “Clec2h CRD-mouse IgG2a-Fc fusion protein (from UniProt Q8C1T8 97-201)”, the Mean normalized OD in test [1] is 0.237 OD.

In test [1], “Clec2i CRD-mouse IgG2a-Fc fusion protein (from UniProt Q9WVF9 99-203)” registered a Mean normalized OD of 0.178 OD.

For the substance “Clec2j CRD-mouse IgG2a-Fc fusion protein”, the Mean normalized OD worked out at 0.005 OD in test [1], 0.006 OD in test [2] and 0.059 OD in test [3].

Take “Clec4a1 CRD-mouse IgG2a-Fc fusion protein”: the Mean normalized OD in test [1] was 0.024 OD; in test [2], 0.014 OD; in test [3] it was -0.004 OD.

Regarding “Clec4a3 CRD-mouse IgG2a-Fc fusion protein”, the Mean normalized OD was found to be 0.002 OD in test [1], 0.002 OD in test [2] and 0.001 OD in test [3].

Take “Clec4a4 CRD-mouse IgG2a-Fc fusion protein”: the Mean normalized OD is 0.007 OD in test [1], 0.004 OD in test [2] and -0.009 OD in test [3].

With “Clec4a CRD-mouse IgG2a-Fc fusion protein (from UniProt Q9QZ15 126-233)”, the figures for the Mean normalized OD in test [1], in test [2] and in test [3] were 0.036 OD, 0.014 OD and 0.062 OD, respectively.

Turning to “Clec4b1 CRD-mouse IgG2a-Fc fusion protein”, the results for the Mean normalized OD in test [1], in test [2] and in test [3] were 0.023 OD, 0.013 OD and 0.001 OD, respectively.

Consider “Clec4b2 CRD-mouse IgG2a-Fc fusion protein”, for which the Mean normalized OD was 0.003 OD in test [1], -0.013 OD in test [2] and 0.008 OD in test [3].

“Clec4f CRD-mouse IgG2a-Fc fusion protein (from UniProt P70194 438-538)”: the Mean normalized OD in test [1] is 0.362 OD; in test [2] it was -0.146 OD; in test [3] it was 0.194 OD.

Consider “Clec4g CRD-mouse IgG2a-Fc fusion protein (from UniProt Q8BNX1 172-287)”, for which the Mean normalized OD in test [1] came to 0.451 OD.

For “Colec12 CRD-mouse IgG2a-Fc fusion protein (from UniProt Q8K4Q8 614-731)”, the Mean normalized OD in test [3] is 0.317 OD.

Regarding “Fcer2a CRD-mouse IgG2a-Fc fusion protein (from UniProt P20693 185-298)”, the figures for the Mean normalized OD in test [1], in test [2] and in test [3] were 0 OD, 0.007 OD and -0.004 OD, respectively.

Gm156 CRD-mouse IgG2a-Fc fusion protein: the Mean normalized OD in test [1] was 0.048 OD; in test [2], 0.074 OD; in test [3], 0.009 OD.

On to IgG2a, for which the Mean normalized OD in test [1] was 0 OD; in test [2], 0.001 OD; in test [3], -0.003 OD.

“Klrb1b_1 CRD-mouse IgG2a-Fc fusion protein”: the values for the Mean normalized OD in test [1], in test [2] and in test [3] were 0.002 OD, 0.001 OD and 0.003 OD, respectively.

Take Klrc1 CRD-mouse IgG2a-Fc fusion protein: the Mean normalized OD came out at 0.01 OD in test [1], 0.006 OD in test [2] and 0.039 OD in test [3].

With Klrc2 CRD-mouse IgG2a-Fc fusion protein, the Mean normalized OD came to 0.035 OD in test [1], 0.025 OD in test [2] and 0.104 OD in test [3].

Consider Klrc3 CRD-mouse IgG2a-Fc fusion protein, for which the Mean normalized OD in test [1] was 0.061 OD; in test [2], -0.007 OD; in test [3], 0.086 OD.

For the substance “Lgals4_1 CRD-mouse IgG2a-Fc fusion protein (from UniProt Q8K419 19-150)”, in test [1], the Mean normalized OD worked out at 0.143 OD.

Take “Lgals6_2 CRD-mouse IgG2a-Fc fusion protein (from UniProt O54891 173-301)”: the Mean normalized OD was found to be 0.073 OD in test [1] and 0.528 OD in test [3].

For the substance “Lgals9_2 CRD-mouse IgG2a-Fc fusion protein (from UniProt O08573 225-353)”, the Mean normalized OD in test [3] came to 0.367 OD.

Regarding “Ly75_1 CRD-mouse IgG2a-Fc fusion protein (from UniProt Q60767 225-341)”, the Mean normalized OD in test [1] was 0.29 OD.

Take “Ly75_2 CRD-mouse IgG2a-Fc fusion protein (from UniProt Q60767 368-486)”: in test [1], the Mean normalized OD is -0.206 OD.

Take “Ly75_5 CRD-mouse IgG2a-Fc fusion protein (from UniProt Q60767 818-932)”: the Mean normalized OD in test [1] turned out to be 0.14 OD.

On to “Mag CRD-mouse IgG2a-Fc fusion protein (from UniProt P20917 22-120)”, for which the Mean normalized OD came out at 0.004 OD in test [1], 0.008 OD in test [2] and 0.032 OD in test [3].

As for “Mbl1 CRD-mouse IgG2a-Fc fusion protein (from UniProt P39039 144-239)”, the results for the Mean normalized OD in test [1], in test [2] and in test [3] were 0.019 OD, 0.043 OD and 0.098 OD, respectively.

For the substance Mgl2 CRD-mouse IgG2a-Fc fusion protein, the Mean normalized OD in test [1] is 1.31 OD; in test [2] it was 0.598 OD; in test [3], 0.145 OD.

“Ncan CRD-mouse IgG2a-Fc fusion protein (from UniProt P55066 1036-1165)” yielded a Mean normalized OD in test [1] of 0.279 OD.

For “Olr1 CRD-mouse IgG2a-Fc fusion protein (from UniProt Q9EQ09 242-355)”, the Mean normalized OD in test [1] amounted to 0.379 OD.

For the substance Prg2 CRD-mouse IgG2a-Fc fusion protein, the Mean normalized OD in test [1] was 0.001 OD; in test [2] it was 0.009 OD; in test [3], -0.014 OD.

As to Prg3 CRD-mouse IgG2a-Fc fusion protein, the Mean normalized OD was -0.057 OD in test [1], -0.271 OD in test [2] and -0.298 OD in test [3].

Regarding Reg3d CRD-mouse IgG2a-Fc fusion protein, the Mean normalized OD in test [1] stood at 0.019 OD; in test [2], 0.019 OD; in test [3], 0.152 OD.

Turning to “Siglec5 CRD-mouse IgG2a-Fc fusion protein”, the values for the Mean normalized OD in test [1], in test [2] and in test [3] were 0.019 OD, 0.041 OD and 0.146 OD, respectively.

Consider “Siglec10 CRD-mouse IgG2a-Fc fusion protein (from UniProt Q80ZE3 26-138)”, for which the Mean normalized OD in test [3] is 0.299 OD.

Take “Siglech CRD-mouse IgG2a-Fc fusion protein”: the Mean normalized OD in test [1] is 0 OD; in test [2], 0.003 OD; in test [3] it was -0.003 OD.

On to “Vcan CRD-mouse IgG2a-Fc fusion protein (from UniProt Q62059 3138-3252)”, for which the Mean normalized OD in test [3] is 0.332 OD.

As a reminder, the koff is the first-order rate constant of dissociation. Low values mean slow dissociation, high ones fast dissociation. Usually kon stands for the second-order rate constant of association. In test [4], “human CD209-hIgG1 Fc-fusion protein (from UniProt Q9NNX6 62-404) (Fc fusion)” displayed a koff of 0.008 s⁻¹ and a xβ (length of dissociation path) of 0.73 nm. The same substance gave a molecules bound per trimeric Spike (average) (molecules per trimeric Spike) in test [5] of 3.6. In test [6], the Kd amounted to 2390 nM, the koff was found to be 0.0316 s⁻¹ and the kon stood at 13200 M⁻¹ s⁻¹.

As a reminder, the Ki is a measure of affinity in units of concentration, obtained from inhibition or displacement. Low values mean a stronger hold on the target, high ones a looser hold on the target. As for “human CLEC4G-hIgG1 Fc-fusion protein (Fc fusion)”, in test [4], the koff came out at 0.007 s⁻¹ and the xβ (length of dissociation path) stood at 0.64 nm. The Ki in test [7] fell in the range of 35 to 70 nM. The substance further displayed a molecules bound per trimeric Spike (average) (molecules per trimeric Spike) in test [5] of 3.5. In test [6], this substance returned a Kd of 259 nM, a koff of 0.0201 s⁻¹ and a kon of 77700 M⁻¹ s⁻¹.
